# Reference: US9422583B2, “Stereospecific carbonyl reductases” (RUTGERS, THE STATE UNIVERSITY OF NEW JERSEY, priority 2009, dated 2016)
# Assays:
# O=C(CO)c1ccccc1 = experiment: reduction of 2-hydroxyacetophenone with NADPH, apparent kinetic parameters by Lineweaver-Burk plots; type: biochemical, Candida parapsilosis
# Experimental: (§1) Since environmental pH value can have an influence on the stereochemistry of enzymatic reactions (Secundo and Phillips, Enzyme Microb. Technol., 19, 487-492 (1996)), the effect of the reaction pH on the activities of SCRs catalyzing 2-hydroxyacetophenone reduction was also investigated. […] Subsequently, the enzymes were evaluated under their individual optimal pH, and apparent kinetic parameters were further measured by double reciprocal Lineweaver-Burk plots at various 2-hydroxyacetophenone concentrations with fixed NADPH concentrations. […] The values are the average of three independent experiments.
# (§2) Enzyme Assays. Carbonyl reductase activity was measured by a continuous spectrophotometric assay using 2-hydroxyacetophenone as a substrate. One unit of enzyme activity was defined as the amount of enzyme catalyzing the oxidation of 1 μmol NAD(P)H per min under the assay conditions. The standard assay mixture for the enzyme activity comprised of 0.1 M potassium phosphate buffer (pH 6.5), 0.3 mM NAD(P)H, 0.7 mM 2-hydroxyacetophenone and appropriate enzyme in a total volume of 100 μl. The decrease in the amount of the coenzyme was measured spectrophotometrically at 340 nm (extinction coefficient [ε]=6.22 mM^−1 cm^−1). Protein concentration was determined using Bradford reagents (Bio-Rad) with bovine serum albumin as a standard. The pH dependence of enzyme activity was determined over a pH range of 4.0 to 8.5 using the following buffers: 0.1 M acetate (pH 4.0 to 6.0), 0.1 M sodium phosphate (pH 6.0 to 8.0) and 0.1 M Tris-HCl (pH 8.0 to 8.5).
# [1] = Carbonyl reductase activity and kinetic parameters, continuous spectrophotometric assay (NAD(P)H decrease at 340 nm); type: biochemical; details: reduction of 2-hydroxyacetophenone
# Experimental: Catalytic Properties of Recombinant SCRs. The enzymatic activities of SCR1, SCR2, and SCR3 were investigated for reduction of 2-hydroxyacetophenone.
# as §1, §2
# [2] = Substrate specificity of SCRs with NADPH as cofactor; type: biochemical
# Text: The substrate specificity of SCRs was investigated under the same conditions as described above. Various carbonyl compounds including aryl ketones, aliphatic ketones, α- and β-ketone esters were used as the substrates with the cofactor of NADPH.
# [3] = other: pH 4.5 (optimum pH), NADPH as cofactor
# [4] = other: pH 6.0 (optimum pH), NADPH as cofactor at fixed concentration, average of three independent experiments
# [5] = other: pH 5.5 (optimum pH), NADPH as cofactor at fixed concentration, average of three independent experiments
# [6] = other: pH 5.0 (optimum pH), NADPH as cofactor at fixed concentration, average of three independent experiments
# [7] = NADPH as cofactor, at optimum pH of each enzyme
# [8] = compared with the other enzyme (SCR1 vs SCR3)
molecule,measurement,setting,value
"Candida parapsilosis CPADH, SEQ ID NO:1 (GenBank DQ675534) (Lodderomyces parapsilosis CDC317)",Km,O=C(CO)c1ccccc1; [3],5.83 mM
same,Vmax,O=C(CO)c1ccccc1; [3],18.3 µmol/min/mg
"Candida parapsilosis stereospecific carbonyl reductase SCR3, SEQ ID NO:2 (GenBank FJ939564), recombinant with C-terminal His6 tag (Lodderomyces parapsilosis CDC317)",Km,O=C(CO)c1ccccc1; [4],4.68 mM
same,Vmax,O=C(CO)c1ccccc1; [4],32.3 µmol/min/mg
"Candida parapsilosis stereospecific carbonyl reductase SCR2, SEQ ID NO:3 (GenBank FJ939563), recombinant with C-terminal His6 tag (Lodderomyces parapsilosis CDC317)",Km,O=C(CO)c1ccccc1; [5],4.81 mM
same,Vmax,O=C(CO)c1ccccc1; [5],8.83 µmol/min/mg
"Candida parapsilosis stereospecific carbonyl reductase SCR1, SEQ ID NO:4 (GenBank FJ939565), recombinant with C-terminal His6 tag (Lodderomyces parapsilosis CDC317)",Km,O=C(CO)c1ccccc1; [6],9.83 mM
same,Vmax,O=C(CO)c1ccccc1; [6],42 µmol/min/mg
"SCR1: stereospecific carbonyl reductase from C. parapsilosis, GenBank FJ939565, recombinant with C-terminal His6 tag (protein, listed as Candida parapsilosis, C-terminal His6 tag) MSKDETISYCNDQLGPLPTTAPKVSDNVTDLFSFKGKVVSVTGSSGGIGWAVAEGFAQAGADVAIWYHSHNADEKAKYLQEKYGVKSIAYGCNIGVAEEVQKTVDQIESDFGKIDVFVANAGIPWTDGPEIDVQDLSKWTKIIDTDLNSVYYCAHAIGPIFRKQGKGSLVITASMSATIVNVPQLQAAYNVAKAGVKHLSKSLAVEWAPFARVNSVSPGYISTNLTTFANPDLQKKWVQLTPLGREGHPKELVGAYLYLASDAATFTTGCDLAVDGGYTVP",pH (optimum pH for each enzyme),[1]; NADPH as cofactor,5.0
same,Specific activity,[1]; [7],5.16 μmol/min mg protein
same,activity for reduction of ethyl 4-chloro-3-oxobutyrate,[2]; among the tested β-ketoesters,highest activity
same,activity to m-Cl-2-hydroxyacetophenone,[2]; [8],higher activity
"SCR3: stereospecific carbonyl reductase from C. parapsilosis, GenBank FJ939564, recombinant with C-terminal His6 tag (protein, listed as Candida parapsilosis, C-terminal His6 tag) MGEIESYCNKELGPLPTKAPTLAKNVLDLFSLKGKVASVTGSSGGIGWAVAEAYAQAGADVAIWYNSHPADEKAEHLQKTYGVRSKAYKCNISDPKSVEETISQQEKDFGTIDVFVANAGIPWADGPVIDLENYDAWNKLINTDINGVFYCAHSIGKIFKKNGKGSLIITASLAGSVVTIPQQQTPYNTAKAACLHLAKSLAVEWAPFARVNTVSPGYFETEINGFADEDMREKWYQLTPLGRMGITEELVGGYLYFASNASTFTTGSDLIIDGGFTCP",pH (optimum pH for each enzyme),[1]; NADPH as cofactor,6.0
same,Specific activity,[1]; [7],4.23 μmol/min mg protein
same,specificity to p-Cl-2-hydroxyacetophenone,[2]; [8],more specific
"SCR2: stereospecific carbonyl reductase from C. parapsilosis, GenBank FJ939563, recombinant with C-terminal His6 tag (protein, listed as Candida parapsilosis, C-terminal His6 tag) MGEIESYCNKELGPLPTKAPTLSKNVLDLFSLKGKVASVTGSSGGIGWAVAEAYAQAGADVAIWYNSHPADEKAEHLQKTYGVRSKAYKCNISDPKSVEETISQQEKDFGTIDVFVANAGVPWTEGPEINVDNYDSWNKIINLDLNGVYYCAHTVGKIFKKNGKGSLVITSSMSGTIVNVPQLQAAYNAAKAACTHLTKSLAVEWAPFARVNCVSPGYIATEISDFVEKDMKAKWWQLTPLGREGLAQELVGAYLYLASNASTYTTGANLAVDGGYTCP",pH (optimum pH for each enzyme),[1]; NADPH as cofactor,5.5
same,Specific activity,[1]; [7],1.55 μmol/min mg protein
same,Specific activity,[1]; under the assay conditions,1.55 µmol/min/mg protein
"CPADH: C. parapsilosis enzyme encoded by cpadh gene, GenBank DQ675534, comparison enzyme in Table 1 (protein, listed as Candida parapsilosis) MGEIESYCNKELGPLPTKAPTLSKNVLDLFSLKGKVASVTGSSGGIGWAVAEAYAQAGADVAIWYNSHPADEKAEHLQKTYGVHSKAYKCNISDPKSVEETISQQEKDFGTIDVFVANAGVTWTQGPEIDVDNYDSWNKIISVDLNGVYYCSHNIGKIFKKNGKGSLIITSSISGKIVNIPQLQAPYNTAKAACTHLAKSLAIEWAPFARVNTISPGYIDTDITDFASKDMKAKWWQLTPLGREGLTQELVGGYLYLASNASTFTTGSDVVIDGGYTCP",pH (optimum pH for each enzyme),[1]; NADPH as cofactor,4.5
same,Specific activity,[1]; [7],2.70 μmol/min mg protein
